Reference: patent US20040265797A1 (CHIRON, published 2004)
Values belong to the binder of their own block, whether it stands above or below them. Square brackets hold non-standard residues; d marks the D form. Ends that are not written are not given here.

Key:
[1] = molecular target: T1, Soluble recombinant human urokinase receptor (suPAR) (human, UniProt Q03405 23-299, limits assumed, biotinylated in the plate assays (sites not given)); experiment: competition with phage displaying peptide 9 for soluble uPAR
T1 construct: Only called a soluble truncated form of the urokinase receptor; also called soluble uPAR; biotinylated suPAR
Procedure: (§1) The final anti-M13 conjugate dilution was 1:4000.
(§2) These concentrations were calculated based on the synthesis reactions.

[2] = molecular target: T1, Soluble recombinant human urokinase …; experiment: competition with phage displaying peptide 9 for soluble uPAR; * quantity tested could have been lower
Procedure: as §1, §2

[3] = molecular target: T1, Soluble recombinant human urokinase …; experiment: alanine scan of peptide 9; competition with phage displaying peptide 9 for soluble uPAR
Procedure: Streptavidin, 100 μl (0.1 mg/ml) in 50 mM Na₂CO₃, pH 9.6, was added to MaxiSorp wells (Nunc), incubated overnight at 4 C, and then washed with PBS/BSA. […] Competitive peptide inhibitors were added to the wells immediately prior to addition of the bacteriophage. The wells were incubated for one hour at room temperature, then washed and bound bacteriophage eluted with 6M urea in 0.1N HCl, pH 2.5. After 15 minutes, the urea eluate was brought to neutral pH by addition of 2M Tris base and the bacteriophage titers of input stocks and elutions measured by plaque formation assay. Results were expressed as the percent of input bacteriophage which bind to the wells. Alternatively, the amount of bacteriophage was determined in an ELISA where phage were preincubated with HRP-conjugated anti-M13 antibody for 30 minutes at room temperature before dispensing into wells prepared as above and incubated for one hour at room temperature. The final anti-M13 conjugate dilution was 1:4000. After washing, TMB substrate (100 μl/well) was added and color development was stopped with 0.8N H₂SO₄ (100 μl/well). The absorbance at 450 nm was then measured in a 96 well plate reader.
Approximately 10⁸ plaque forming units of the phage were used in the assay.

T1 sequence (Q03405 23-299 limits assumed): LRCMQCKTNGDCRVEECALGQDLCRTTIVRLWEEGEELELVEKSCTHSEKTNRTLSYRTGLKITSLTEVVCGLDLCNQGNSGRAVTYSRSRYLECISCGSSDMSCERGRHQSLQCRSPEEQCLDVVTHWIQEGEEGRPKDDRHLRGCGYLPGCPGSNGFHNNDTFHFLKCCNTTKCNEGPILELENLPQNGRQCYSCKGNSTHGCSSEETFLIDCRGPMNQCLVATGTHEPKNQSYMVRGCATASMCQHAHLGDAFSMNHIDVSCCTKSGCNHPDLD

- % Inhibition at 5 uM [1]: 41%
- % Inhibition at 2.5 uM [2]: 24%
B1: Analog 82 (peptide)
peptide: [dA]EFFKLGPNGYVYLHSA-NH2
modifications: N-terminus assumed
SMILES: CC(C)C[C@H](NC(=O)[C@H](CCCCN)NC(=O)[C@H](Cc1ccccc1)NC(=O)[C@H](Cc1ccccc1)NC(=O)[C@H](CCC(=O)O)NC(=O)[C@@H](C)N)C(=O)NCC(=O)N1CCC[C@H]1C(=O)N[C@@H](CC(N)=O)C(=O)NCC(=O)N[C@@H](Cc1ccc(O)cc1)C(=O)N[C@H](C(=O)N[C@@H](Cc1ccc(O)cc1)C(=O)N[C@@H](CC(C)C)C(=O)N[C@@H](Cc1c[nH]cn1)C(=O)N[C@@H](CO)C(=O)N[C@@H](C)C(N)=O)C(C)C

- % Inhibition at 5 uM [1]: 76%
- % Inhibition at 2.5 uM [2]: 80%
B2: Analog 88 (peptide)
peptide: AEFFKLG[dP]NGYVYLHSA-NH2
modifications: N-terminus assumed
SMILES: CC(C)C[C@H](NC(=O)[C@H](CCCCN)NC(=O)[C@H](Cc1ccccc1)NC(=O)[C@H](Cc1ccccc1)NC(=O)[C@H](CCC(=O)O)NC(=O)[C@H](C)N)C(=O)NCC(=O)N1CCC[C@@H]1C(=O)N[C@@H](CC(N)=O)C(=O)NCC(=O)N[C@@H](Cc1ccc(O)cc1)C(=O)N[C@H](C(=O)N[C@@H](Cc1ccc(O)cc1)C(=O)N[C@@H](CC(C)C)C(=O)N[C@@H](Cc1c[nH]cn1)C(=O)N[C@@H](CO)C(=O)N[C@@H](C)C(N)=O)C(C)C

- % Inhibition at 2.5 uM [1]: 47%
- % Inhibition at 5 uM [1]: 59%
B3: Analog 95 (peptide)
peptide: AEFFKLGPNGYVYLH[dS]A-NH2
modifications: N-terminus assumed
SMILES: CC(C)C[C@H](NC(=O)[C@H](CCCCN)NC(=O)[C@H](Cc1ccccc1)NC(=O)[C@H](Cc1ccccc1)NC(=O)[C@H](CCC(=O)O)NC(=O)[C@H](C)N)C(=O)NCC(=O)N1CCC[C@H]1C(=O)N[C@@H](CC(N)=O)C(=O)NCC(=O)N[C@@H](Cc1ccc(O)cc1)C(=O)N[C@H](C(=O)N[C@@H](Cc1ccc(O)cc1)C(=O)N[C@@H](CC(C)C)C(=O)N[C@@H](Cc1c[nH]cn1)C(=O)N[C@H](CO)C(=O)N[C@@H](C)C(N)=O)C(C)C

- binding result [3]: no binding
Binder: AEFFKAGPNGYVYLHSA-NH2 [Analog 69 (peptide 9, Leu at position 6 to alanine)]

- binding result [3]: no binding
Binder: AEFFKLGPNGYAYLHSA-NH2 [Analog 75 (peptide 9, Val at position 12 to alanine)]

- binding result [3]: no binding
Binder: AEFFKLGPNGYVALHSA-NH2 [Analog 76 (peptide 9, Tyr at position 13 to alanine)]

- binding result [3]: no binding
Binder: AEFFKLGPNGAVYLHSA-NH2 [Analog 74 (peptide 9, Tyr at position 11 to alanine)]

- % Inhibition at 5 uM [1]: 40%
- % Inhibition at 2.5 uM [2]: 38%
B4: Analog 96 (peptide)
peptide: AEFFKLGPNGYVYLHS[dA]-NH2
modifications: N-terminus assumed
SMILES: CC(C)C[C@H](NC(=O)[C@H](CCCCN)NC(=O)[C@H](Cc1ccccc1)NC(=O)[C@H](Cc1ccccc1)NC(=O)[C@H](CCC(=O)O)NC(=O)[C@H](C)N)C(=O)NCC(=O)N1CCC[C@H]1C(=O)N[C@@H](CC(N)=O)C(=O)NCC(=O)N[C@@H](Cc1ccc(O)cc1)C(=O)N[C@H](C(=O)N[C@@H](Cc1ccc(O)cc1)C(=O)N[C@@H](CC(C)C)C(=O)N[C@@H](Cc1c[nH]cn1)C(=O)N[C@@H](CO)C(=O)N[C@H](C)C(N)=O)C(C)C

- % Inhibition at 2.5 uM [1]: 36%
- % Inhibition at 5 uM [1]: 41%
B5: Analog 94 (peptide)
peptide: AEFFKLGPNGYVYL[dH]SA-NH2
modifications: N-terminus assumed
SMILES: CC(C)C[C@H](NC(=O)[C@H](CCCCN)NC(=O)[C@H](Cc1ccccc1)NC(=O)[C@H](Cc1ccccc1)NC(=O)[C@H](CCC(=O)O)NC(=O)[C@H](C)N)C(=O)NCC(=O)N1CCC[C@H]1C(=O)N[C@@H](CC(N)=O)C(=O)NCC(=O)N[C@@H](Cc1ccc(O)cc1)C(=O)N[C@H](C(=O)N[C@@H](Cc1ccc(O)cc1)C(=O)N[C@@H](CC(C)C)C(=O)N[C@H](Cc1c[nH]cn1)C(=O)N[C@@H](CO)C(=O)N[C@@H](C)C(N)=O)C(C)C
